“Also recorded” adds a separate entry of the source.
Biological target: T1, NarX (Escherichia coli, UniProt P0AFA2, T450I/V366A)
T1 construct: All genes were; made in house; host or cells: cell-free expression in situ, myTXTL E. coli extract (Arbor Biosciences), with synthetic lipid vesicles
Assay: Cell-free NarX-L system encapsulated in giant unilamellar vesicles
Type: biochemical, E. coli
Details: GUV-encapsulated NarX-L, nitrate dependent signaling (FIG. 16)
Text: Over the last decade, many promising cell-free systems have been developed, enabling the delivery and sensing of a wide array of ligands in non-ideal environments. Cell-free systems have been encapsulated and administered to mice (47), lyophilized and used in resource limited settings (6, 7), and integrated into wearable materials to sense environmental contaminants (8). Towards the goal of creating cell-mimetic particles which can sense environmental stimuli in complex environments, such as the body, we encapsulated our cell-free system into giant unilamellar vesicles using the emulsion transfer method (FIG. 5A). We encapsulated cell-free extract containing plasmids encoding NarX, NarL, and the downstream protein (luciferase or mEGFP) into membranes composed of 1 POPC: 1 cholesterol and a rhodamine conjugated lipid. We hypothesized that by encapsulating cell-free reaction components into vesicles, NarX could insert into membranes and initiate signaling in response to exogenously added nitrate. […]
For samples containing the luciferase plasmid, 0.5 μL of NanoGlo Luciferase substrate was added to the reaction, and reactions were read on a Molecular Devices Spectra Max i3 plate reader. […] Images were analyzed using the Nikon NIS software.

T1 sequence (P0AFA2 other isoform, or with tags, fused parts or gaps V366A/T450I): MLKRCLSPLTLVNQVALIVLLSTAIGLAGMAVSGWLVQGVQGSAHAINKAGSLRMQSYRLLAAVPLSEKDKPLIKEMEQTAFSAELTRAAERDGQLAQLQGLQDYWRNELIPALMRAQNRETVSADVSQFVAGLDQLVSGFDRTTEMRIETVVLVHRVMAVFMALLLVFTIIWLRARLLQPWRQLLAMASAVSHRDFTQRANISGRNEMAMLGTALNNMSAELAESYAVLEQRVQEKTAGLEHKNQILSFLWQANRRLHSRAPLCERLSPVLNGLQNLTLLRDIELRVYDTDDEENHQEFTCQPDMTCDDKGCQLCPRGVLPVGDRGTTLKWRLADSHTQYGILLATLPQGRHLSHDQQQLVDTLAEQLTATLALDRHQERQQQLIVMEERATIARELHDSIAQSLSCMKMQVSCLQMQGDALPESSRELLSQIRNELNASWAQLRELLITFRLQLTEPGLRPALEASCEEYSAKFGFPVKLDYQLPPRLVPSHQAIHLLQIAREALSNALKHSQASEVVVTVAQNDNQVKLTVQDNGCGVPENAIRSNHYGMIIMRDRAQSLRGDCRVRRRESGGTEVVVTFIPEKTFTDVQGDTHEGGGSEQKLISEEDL

B1: Proteinase K: protease added to the outside of vesicles (protein, UniProt P06873 106-384, looked up)
Proteinase K: AAQTNAPWGLARISSTSPGTSTYYYDESAGQGSCVYVIDTGIEASHPEFEGRAQMVKTYYYSSRDGNGHGTHCAGTVGSRTYGVAKKTQLFGVKVLDDNGSGQYSTIIAGMDFVASDKNNRNCPKGVVASLSLGGGYSSSVNSAAARLQSSGVMVAVAAGNNNADARNYSPASEPSVCTVGASDRYDRRSSFSNYGSVLDIFGPGTSILSTWIGGSTRSISGTSMATPHVAGLAAYLMTLGKTTAASACRYIADTANKGDLSNIPFGTVNLLAYNNYQA
  effect on encapsulated TCS signaling when added outside of vesicles: signaling was inhibited; also recorded: is inhibited

— patent publication US20250137032A1, “TWO-COMPONENT SYSTEMS FOR USE IN CELL-FREE GENE EXPRESSION” (priority 2023, published 2025)
